In the supplement of paper PMC7125110:
± gives the standard error. Variants at the floor of the assay were thinned out.

B1: glmS ribozyme (parent)
chain: AUAAAAGCGCCAGAACUACAGAAAUGUAGUUGACGAGGAGGAGGUUUAUCGAAUUUUCGGCGGAUGCCUCCAAA

Variants of: B1
Assay: self-cleavage kobs at 2500 uM GlcN6P; higher = faster cleavage; RNA array
Details: with glucosamine-6-phosphate
Summary of the method: (§1)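 Tiles bearing barcoded ribozyme variants, transcribed in situ by E. coli RNA polymerase on sequenced MiSeq chips, were imaged over ~14 h at 37 °C using a hybridised Cy3 probe. Glucosamine-6-phosphate was supplied at 40 μM to 10 mM in HEPES/KCl/Mg(OAc)2 buffer. kobs came from one- or two-exponential decay fits to normalised per-tile medians, and weighted Michaelis–Menten fits then provided kcat and KM.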

Variant	self-cleavage kobs at 2500 uM GlcN6P [s⁻¹]
AUAAAAGCGCCAGAACUACAGAAAUGUAGUUGUUGAGGCGGAGGUUUAUCGAAUUUUCGGCGGAUGCCUCCAAA	< 1e-05
AUAAAAGCGCCAGAACUACAGAAAUGUAGUUGAAGAGGAGGAGGUUUAUCCAAGUUUCGGCGGAUGCCUCCAAA	< 1e-05
AUAAAAGCGCCAGAACUACAGAAAUGUAGUUGACAAGGAGAAGGUUUAUCGAAGUUUCGGCGGAUGCCUCCAAA	< 1e-05
AUAAAAGCGCCAGAACUACAGAAAUGUAGUUGAAGAGGUGAAGGUUUAUCGAAAUUUCGGCGGAUGCCUCCAAA	< 1e-05
AUAAAAGCGCCAGAACUACAGAAAUGUAGUUGGCGUGGAGGAGGUUUAUCGAAUUUUCGGCGGAGGCCUCCAAA	< 1e-05
AUAAAAGCGCCAGAACUACAGAAAUGUAGUUGAUGAGGAGGAGGUUUAUCGAAUUUUCAGCGGAUGCCUCUAAA	< 1e-05
AUAAAAGCGCCAGAACUACAGAAAUGUAGUUGAAUAGGAGGAGGUUUAUCGAAUGUUCGGCGGAUGCCUCCAAA	< 1e-05
AUAAAAGCGCCAGAACUACAGAAAUGUAGUUGAUGAGGAAGAGGUUUAUCGAAUUUACGGCGGAUGCCUCCAAA	< 1e-05
AUAAAAGCGCCAGAACUACAGAAAUGUAGUUGAGAAGGAGGAGGUUUACCGAAUUUUCGGCGGAUGCCUCCAAA	< 1e-05
AUAAAAGCGCCAGAACUACAGAAAUGUAGUUGAAGAGGAGGAGUUUUAUCGAAUUUUGGGCGGAUGCCUCCAAA	< 1e-05
AUAAAAGCGCCAGAACUACAGAAAUGUAGUUGAUGAGGAGGAGGUUAAUCGAAUUUUCUGCGGCUGCCUUCAAA	< 1e-05
AUAAAAGCGCCAGAACUACAGAAAUGUAGUUGAUGAGUAGGAGGUUUAUGGAAUUUUCGGCGGAUGCCUCCAAA	0.000215 ± 5.7e-05
AUAAAAGCGCCAGAACUACAGAAAUGUAGUUGACAAGGAAGAGGUUUAUCGAAUUUUCGGCGGAUUCCUCCAAA	< 1e-05
AUAAAAGCGCCAGAACUACAGAAAUGUAGUUGACCAGGAUGAGGUUUAUCAAAUUUUCGGCGGAGGCCUCCAAA	< 1e-05
AUAAAAGCGCCAGAACUACAGAAAUGUAGUUGAAGAGGAGAAGGUUCAUCGAAUUUUCGGCGGAUGCCUCCAAA	< 1e-05
AUAAAAGCGCCAGAACUACAGAAAUGUAGUUGACCAGGAGGAGGUUUAUAGUAUUUUCGGCGGAUGCCUCCAAA	< 1e-05
AUAAAAGCGCCAGAACUACAGAAAUGUAGUUGACUAGGAGGUGGUUUAUCGAAUUUUCGGCGGUUGCCUCCAAA	< 1e-05
AUAAAAGCGCCAGAACUACAGAAAUGUAGUUGGCGAGGAGGAGGUUCAUCGAAUUUUCGGGGGAUGCCUCCAAA	< 1e-05
AUAAAAGCGCCAGAACUACAGAAAUGUAGUUGUCGAGGAGGGGGUUUAUCGAAUUUUCGGAGGAUACCUCCAAA	< 1e-05
AUAAAAGCGCCAGAACUACAGAAAUGUAGUUGACGCAGAGGAGGUUUAUCCAAUUUUCGGUGGAUGCCUCCAAA	< 1e-05
AUAAAAGCGCCAGAACUACAGAAAUGUAGUUGAGGAGGAGGAGGUUUAUCGAAUUUUCAGCGGAUGCCUCCAAA	< 1e-05
AUAAAAGCGCCAGAACUACAGAAAUGUAGUUGACGCGGAGGAGGUUUAUUGAAUUUUCAGCGGAUGCCUCCAAA	< 1e-05
AUAAAAGCGCCAGAACUACAGAAAUGUAGUUGAAGAGGAGGAGGUUUAUCGAAUGUUCGGCGGGUGCCUCCAAA	< 1e-05

Variant	self-cleavage kobs at 2500 uM GlcN6P [s⁻¹]
AUAAAAGCGCCAGAACUACAGAAAUGUAGUUGACGCGGAGGAGGUUUAUCCAAUUUUCGGCGGAUGCCUCGAAA	< 1e-05
AUAAAAGCGCCAGAACUACAGAAAUGUAGUUGAUGAGGAGGAGGUUUAUAGAAUUUUGGGCCGAUGCCUCCAAA	< 1e-05
AUAAAAGCGCCAGAACUACAGAAAUGUAGUUGGCGAGGAGGAGGUUAAUCGCAUUUUCGGCGGAUGCCUACAAA	< 1e-05
AUAAAAGCGCCAGAACUACAGAAAUGUAGUUGUCGAGGAGGAGGUUUAUCGAAUUUUCGGCGGCUGCCUACAAA	< 1e-05
AUAAAAGCGCCAGAACUACAGAAAUGUAGUUGUCGAGGAGGAGGUUUUUCGAAUUUUCGGCUGAUGCCUCCAAA	< 1e-05
AUAAAAGCGCCAGAACUACAGAAAUGUAGUUGAUGAGGUGCAGGUUUAUCGAAUUUUCGGCGGAUGCCGCCAAA	< 1e-05
AUAAAAGCGCCAGAACUACAGAAAUGUAGUUGAAGAGGAGGAGGUUUCUCGAAAUUUCGGCGGAUGCCUCCAAA	< 1e-05
AUAAAAGCGCCAGAACUACAGAAAUGUAGUUGACGCGGAGCUGGUCUAUCGAAUUUUCGGCGGAUGCCUCCAAA	< 1e-05
AUAAAAGCGCCAGAACUACAGAAAUGUAGUUGAGGAGGAGGACGUUUAUCGAUAUUUCGGCGGAUGCCUCCAAA	< 1e-05
AUAAAAGCGCCAGAACUACAGAAAUGUAGUUGAAGAGUAAGAGCUUUAUCGAAUCUUCGGCGGAUGCCUGCAAA	< 1e-05
AUAAAAGCGCCAGAACUACAGAAAUGUAGUUGACUAGGAGGAGGUUUAUCGAAUUUUCGACGGAUGCCUGCAAA	< 1e-05
AUAAAAGCGCCAGAACUACAGAAAUGUAGUUGGCACGGAGAAGGUUUAUCGAAUUUUCGGGGGAUGCGUCCAAA	< 1e-05
AUAAAAGCGCCAGAACUACAGAAAUGUAGUUGAGGAGGGGGAGGUUUAUCGAAUUUUCGUCGGAUGCCUCCAAA	< 1e-05
AUAAAAGCGCCAGAACUACAGAAAUGUAGUUGUAGAGGAGGAGUUUUAUCGCAUUUUCGGCGGAUGCCUCCAAA	< 1e-05
AUAAAAGCGCCAGAACUACAGAAAUGUAGUUGAAGAUGAGGAGGUGUAUCGAAUUUUCGGCGGAGGCCUCCAAA	< 1e-05
AUAAAAGCGCCAGAACUACAGAAAUGUAGUUGACCAGGAGGAGGUUUAUCGAAUUUUCGUCGGAUGACUCCAAA	< 1e-05
AUAAAAGCGCCAGAACUACAGAAAUGUAGUUGGCGAGGAGGGGGUUUAUCGGAUUUUCGCCGGAUGCCUCCAAA	< 1e-05
AUAAAAGCGCCAGAACUACAGAAAUGUAGUUGUGGUGGAGGAGGUUUAUCGAAUUUUCGGCGGAUGUCUCCAAA	< 1e-05
AUAAAAGCGCCAGAACUACAGAAAUGUAGUUGACCAGGAGGAGGUUUAUGGAAGUUUCGGCGGAUGCCUCCAAA	8.42e-05 ± 1.5e-05
AUAAAAGCGCCAGAACUACAGAAAUGUAGUUGACUAGGAGGAGGUUUUUCGAAUUGUCGGCGGAUGCCUCCAAA	< 1e-05
AUAAAAGCGCCAGAACUACAGAAAUGUAGUUGACCAAGAGGAGGUUUAACGGUUUGUCGGGGGAUGCCUCCAAA	< 1e-05
AUAAAAGCGCCAGAACUACAGAAAUGUAGUUGAUGAGGACGAGGUUUAUCGAAUUAUCGGCGAAUGCCUCCAAA	< 1e-05
AUAAAAGCGCCAGAACUACAGAAAUGUAGUUGUCGAGGAGGAGGUUUAUCGCAUUUUCGGCGCAUGCCUCCAAA	< 1e-05

Variant	self-cleavage kobs at 2500 uM GlcN6P [s⁻¹]
AUAAAAGCGCCAGAACUACAGAAAUGUAGUUGAGGAGGAGGAGGUUUAUCUAAUUCUCGGCGGAUGUCUCCAAA	< 1e-05
AUAAAAGCGCCAGAACUACAGAAAUGUAGUUGCCGAGGAGGAGGUUUAUCGAAUUCUCGGCGUAUGCCUCCAAA	< 1e-05
AUAAAAGCGCCAGAACUACAGAAAUGUAGUUGACAAGGAGGAGGUUUAUCGAAUUUUCGGUGGAUGCCUCCAAA	< 1e-05
AUAAAAGCGCCAGAACUACAGAAAUGUAGUUGUCGAGGAGGAGGUGUGUCGAAUUUUCGGCGGCUGCCUUCAAA	< 1e-05
AUAAAAGCGCCAGAACUACAGAAAUGUAGUUGUCUAGGAGGAGGUUUAUCCAAUUUUCGGCGGUUGCCUCCAAA	< 1e-05
AUAAAAGCGCCAGAACUACAGAAAUGUAGUUGAAGAGGAGGAGGUUUAUUGAAUUUUCGGCGGAUGACUCCAAA	< 1e-05
AUAAAAGCGCCAGAACUACAGAAAUGUAGUUGAGGUGGAAGAGGUUUAUCGAAUUUUCGGCGGCUGCCUCGAAA	< 1e-05
AUAAAAGCGCCAGAACUACAGAAAUGUAGUUGGCGAGGAGGAGGUUUAUCGAAUUGUCCGCGGAUGCCUCCAAA	< 1e-05
AUAAAAGCGCCAGAACUACAGAAAUGUAGUUGACUAGGAGGAGGUUUAUCGAAUUUUCGGCGGGUGCCUCAAAA	< 1e-05
AUAAAAGCGCCAGAACUACAGAAAUGUAGUUGAGGAGGAGGCGGUUUGUCGAAUUUUCGGCGGAUGCCUCCAAA	< 1e-05
AUAAAAGCGCCAGAACUACAGAAAUGUAGUUGGCGAGGAGGAGGUUUAUCGAAUUUUCCGCGGAUGCUUCCAAA	< 1e-05
AUAAAAGCGCCAGAACUACAGAAAUGUAGUUGAUGAGGAGGAGGUUUUUCGAAUUUUCCGCGGAUGCACCCAAA	< 1e-05
AUAAAAGCGCCAGAACUACAGAAAUGUAGUUGGCGAGGAGGAGGUGUAUCGAAUUUUCGGCGGAUGCCUUCAAA	< 1e-05
AUAAAAGCGCCAGAACUACAGAAAUGUAGUUGAAGAGGAGGAAGUUUAUCGAAUUUUCGGCGGGUGCCUCCAAA	< 1e-05
AUAAAAGCGCCAGAACUACAGAAAUGUAGUUGACUGGGAGGAGGUUUAUCGAAUUUUCGGCGCAUGCCUCCAAA	< 1e-05
AUAAAAGCGCCAGAACUACAGAAAUGUAGUUGACGCGGAGGAGGUUUAUCGGAUUUUCGGGGGAUGCCUCCAAA	< 1e-05
AUAAAAGCGCCAGAACUACAGAAAUGUAGUUGAUGAGGAGAAGGUUUAUCGUAUUUUCGGCGGAUGCCUCCAAA	< 1e-05
AUAAAAGCGCCAGAACUACAGAAAUGUAGUUGAUGAGGAGGAGGUGUAUCGAAUUUUCGGCGGAUUCCUCCAAA	< 1e-05
AUAAAAGCGCCAGAACUACAGAAAUGUAGUUGUCGAGGAGGAUGUUUAUCGAAAUUUCGACGGAUGCCUCCAAA	< 1e-05
AUAAAAGCGCCAGAACUACAGAAAUGUAGUUGACAAGGAGGAGGUUUAUAGAAUUUGCGGCGGAUGCCUCCAAA	< 1e-05
AUAAAAGCGCCAGAACUACAGAAAUGUAGUUGACGCGGAGGAGUUUUAUCGAAUUUUCGGCGGAUGUCUCCAAA	< 1e-05
AUAAAAGCGCCAGAACUACAGAAAUGUAGUUGACCAGGAGGUGGUUUCUCGAAUUUUCGGCGUAUGCCUCCAAA	< 1e-05

Variants of: B1
Assay: self-cleavage kobs at 10000 uM GlcN6P; higher = faster cleavage; RNA array
Details: with glucosamine-6-phosphate
Summary of the method: as §1

Variant	self-cleavage kobs at 10000 uM GlcN6P [s⁻¹]
AUAAAAGCGCCAGAACUACAGAAAUGUAGUUGAGGAGGAGGAGGUUUAUCGAAUUUUCAGCGGAUGCCUCCAAA	< 1e-05
AUAAAAGCGCCAGAACUACAGAAAUGUAGUUGACGCGGAGGAGGUUUAUCCAAUUUUCGGCGGAUGCCUCGAAA	< 1e-05
AUAAAAGCGCCAGAACUACAGAAAUGUAGUUGACGCGGAGCUGGUCUAUCGAAUUUUCGGCGGAUGCCUCCAAA	< 1e-05
AUAAAAGCGCCAGAACUACAGAAAUGUAGUUGACCAGGAGGAGGUUUAUGGAAGUUUCGGCGGAUGCCUCCAAA	0.000106 ± 1.6e-05
AUAAAAGCGCCAGAACUACAGAAAUGUAGUUGACCAAGAGGAGGUUUAACGGUUUGUCGGGGGAUGCCUCCAAA	< 1e-05
AUAAAAGCGCCAGAACUACAGAAAUGUAGUUGGCGAGGAGGAGGUGUAUCGAAUUUUCGGCGGAUGCCUUCAAA	< 1e-05
